Assay results as given in paper PMC7530888 (Nucleic Acids Research, 2020).

Legend:
[1] = system: MtbXthA; assay: Effect on AP-endonuclease activity of MtbXthA; assay type: biochemical, M. tuberculosis; conditions: N1, MtbXthA 10 nM, added protein 5-100 nM; pH 7.8, 37°C, 10 min
[2] = assay type: physicochemical, M. tuberculosis; conditions: Superdex 200 increase 10/30; pH 8.0; calibrated with protein standards
[3] = Small angle X-ray scattering; assay type: physicochemical, M. tuberculosis; conditions: from P(r); for Dmax: BM29 ESRF, 10°C, pH 8.0
[4] = system: MtbXthA; assay: SEC co-elution with MtbXthA; assay type: binding, M. tuberculosis; conditions: Superdex 200; pH 8.0; SDS-PAGE of fractions
[5] = system: nicked duplex DNA substrate (L1); assay: In vitro ligation of nicked duplex DNA; assay type: biochemical; conditions: L1 10 nM, MtbLigA 5 nM alone; 50 μM NAD^+, pH 7.8, 37°C, 3 min; SD ±2.5
[6] = system: nicked duplex DNA substrate (L2); assay: Ligation of nicked AP-DNA with 5′p-THF; assay type: biochemical; conditions: L2 10 nM, MtbLigA 0.01-20 nM
[7] = system: mimic DNA substrate (L3); assay: Ligation of true incised abasic site mimic with 5′-dRP; assay type: biochemical; conditions: L3 treated with uracil DNA glycosylase; MtbLigA 0.01-20 nM
[8] = system: apurinic/ apyrimidinic DNA (AP-DNA) substrate (N1); assay: AP-endonuclease assay on THF AP-DNA; assay type: biochemical; conditions: no MtbXthA
[9] = system: MtbXthA^ID; assay: Effect on endonuclease activity of MtbXthA^ID; assay type: biochemical, M. tuberculosis; conditions: N1 20 nM, MtbXthA^ID 10 nM, MtbLigA 5-100 nM
[10] = system: THF containing AP-DNA (N1); assay: Gel shift assay, THF AP-DNA; assay type: binding; conditions: N1 10 nM, MtbLigA 0-40 µM

Row | Substance | effect on AP-endonuclease activity of MtbXthA [1] | Stoke's radii [2] [nm] | Dmax [3] [nm] | Dmax in presence of nicked DNA ([3]; presence of nicked DNA substrate (S1)) [nm] | interaction with MtbXthA by SEC [4] | DNA ligation [5] [%] | ligation of nicked AP-DNA (in words) [6] | ligated product (in words) [7] | effect on AP-DNA substrate alone (in words) [8] | effect on incision activity of MtbXthA^ID [9] | complex with THF AP-DNA (in words) [10]
1 | BSA: BSA, control for macromolecular crowding [reference compound] | exerted no effect |  |  |  |  |  |  |  |  |  | 
2 | MtbLigA+Nicked DNA: MtbLigA in complex with 27-mer nicked DNA (S1) |  | 3.19 | 14.79 |  |  |  |  |  |  |  | 
3 | MtbLigA: M. tuberculosis NAD^+-dependent DNA ligase A, full-length | progressive decrease in product formation | 4.02 | 16.7 | 14.79 | co-eluted | 75 | could ligate the nicked AP-DNA | progressive increase in the ligated product | no effect on the AP-DNA substrate | reduction in incision activity | did not form a complex with THF containing AP-DNA
